Results: US6642353B1, “Peptide ligands for the erythropoietin receptor” (Chugai Seiyaku Kabushiki Kaisha, priority 2000, dated 2003)
Positions of bridges follow the written chain, without caps; N, C: chain ends. Residues, ends and D or L forms follow the SMILES beside them. No end group written: not given here.

Assays:
chimeric Ig-EPOR protein [1] = target: T1, chimeric Ig-EPOR protein (Homo sapiens, UniProt P19235); test: peptide inhibition ELISA (binding of Ig-EPOR to EPO-coated plates); details: for EPOR binding activity: N-terminal truncations of ERB1-7
T1 construct: a fusion protein having domains corresponding to murine IgG1 and the extracellular domain (ECD) of the human EPOR; made in house; secreted into the medium
Method: The wells were washed three times with PBS containing 0.05% (v/v) TWEEN® 20 non-ionic detergent, and then blocked with 1% (w/v) BSA and 0.05% TWEEN® 20 in PBS (blocking buffer) to prevent non-specific binding. Excess blocking buffer was removed by washing once. Culture media was serially diluted in blocking buffer, and 50 μl from each dilution was added to the coated and blocked wells. Wells receiving undiluted media served as a control. A set of uncoated wells also received the diluted cell-free media. Plates were then incubated for 2 hours at room temperature, and washed three times as described above. After removing unbound chimeric receptor by washing, bound chimeric protein was assayed using 100 μl of the HRP labeled anti-murine IgG antibody, substantially as described above. Color development was initiated by addition of 100 μl of the TMB peroxidase substrate, and the extent of the peroxidase reaction measured spectrophotometrically at 450 nm and 650 nm, as described above.
Synthetic peptides having the sequences […] (SEQ ID NO:81), and […] (SEQ ID NO:82) were synthesized in the cyclic (disulfide-bonded) form using standard procedures (Peninsula Laboratories, Belmont, Calif.). The 18-mer peptide sequences were derived from the B7 and B8 clones, and the peptides are referred to herein as “ERB1-7” (SEQ ID NO:81) and “ERB1-8” (SEQ ID NO:82), respectively. The structures of the two purified peptides, each being greater than 95% pure as judged by HPLC, were confirmed by mass spectrometry. […] Such synthetic peptides are EPO mimetics.
Synthetic peptides corresponding to the sequence of ERB1-7, but missing either one, two, three or four N-terminal amino acids were tested in the peptide inhibition ELISA protocol. The following peptides were synthesized and tested substantially as described in Example 8: 18-mer peptide ERB1-7, consisting of […] (SEQ ID NO:81);

TF-1 cells = test: TF-1 cell proliferation assay; assay type: cell-based, human
Method: To evaluate the biological activities of two representative synthetic peptides containing the 12-mer consensus sequence, peptides ERB1-7 and ERB1-8 were tested for their ability to stimulate proliferation of the EPO-responsive cell line (TF-1).
TF-1 cells were propagated in RPMI 1640 containing 10% BCS and 5 ng/ml GM-CSF. […] Also tested as a negative control was an IL-6 peptide having the sequence […] (SEQ ID NO:87). Peptide concentrations were tested over a 1,000-fold concentration range of 0.02 to 20 μM.

[2] = Biacore analysis of binding kinetics of Ig-EPOR; details: known affinity values 0.1-1.1×10^−9 k (Karlsson et al.)
Source text: Contaminating bands and degradation products on the gel were minimal. […] The Ig-EPOR protein easily was recoverable in microgram amounts using the procedures described above.

chimeric Ig-EPOR protein [3] = target: T1, chimeric Ig-EPOR protein; test: phage ELISA, relative affinities of binding clones for Ig-EPOR; details: optical density per phage at 50% ERB1 maximum response × 1×10^8; ERB1 = standard
Method: To better characterize the phage isolates having binding specificity for the EPOR, we compared the relative affinities of the binding clones presented in FIG. 4, using a phage ELISA procedure. Phage stocks of the binding clones were titered in triplicate to accurately determine the concentration of pfu/ml for each lysate. Different isolates were then assayed by ELISA using normalized phage concentrations so that all clones were tested using equivalent numbers of phage. Optical densities in the ELISA corresponding to the equivalent of a 50% maximum response in the ERB1 trial were next determined for each of the different phage isolates. […] The normalized relative affinity (“Rel. Aff.”) for each clone is shown to the right of the clone's peptide sequence in FIG. 4.
Target sequence in this assay (P01868 98-324 partner limits assumed, one chain of several): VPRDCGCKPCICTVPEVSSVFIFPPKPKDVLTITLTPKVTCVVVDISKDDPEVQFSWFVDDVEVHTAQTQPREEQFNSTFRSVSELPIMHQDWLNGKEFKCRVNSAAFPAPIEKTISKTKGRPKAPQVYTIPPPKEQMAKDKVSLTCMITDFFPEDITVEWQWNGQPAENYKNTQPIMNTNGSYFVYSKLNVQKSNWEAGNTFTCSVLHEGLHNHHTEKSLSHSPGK

interleukin-6 (IL-6R) = target: T2, interleukin-6 (IL-6R) (Homo sapiens, UniProt P08887); test: phage binding control, IL-6R extracellular domain; details: results not shown
T2 sequence (P08887 20-365 limits assumed): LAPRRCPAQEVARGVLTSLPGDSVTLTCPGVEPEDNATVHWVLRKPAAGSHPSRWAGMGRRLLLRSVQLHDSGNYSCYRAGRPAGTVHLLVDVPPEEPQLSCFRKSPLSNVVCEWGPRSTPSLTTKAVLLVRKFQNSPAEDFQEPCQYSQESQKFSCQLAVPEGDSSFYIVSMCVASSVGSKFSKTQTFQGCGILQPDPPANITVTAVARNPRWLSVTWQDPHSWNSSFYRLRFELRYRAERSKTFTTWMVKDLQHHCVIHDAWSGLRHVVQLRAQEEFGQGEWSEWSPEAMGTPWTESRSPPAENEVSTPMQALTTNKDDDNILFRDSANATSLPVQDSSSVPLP

chimeric Ig-EPOR probe = target: T3, chimeric Ig-EPOR probe (Homo sapiens, UniProt P19235); test: EPOR-specific magnetic bead phage ELISA; assay type: binding; details: anti-M13 detection
T3 construct: a fusion protein having domains corresponding to murine IgG1 and the extracellular domain (ECD) of the human EPOR; made in house; secreted into the medium
Method: A magnetic bead ELISA protocol was used to verify that the ERB1 phage clone bound to the chimeric Ig-EPOR probe by specific interactions. The chimeric Ig-EPOR probe was bound to magnetic beads displaying rat anti-murine IgG1, substantially as described above. Samples (100 μl) of 1:2 serial dilutions (PBS and 1% BSA) of a phage lysate were combined with the beads, and the phage allowed to bind the immobilized probe for 1 hr at room temperature. Phage used in this procedure were ERB1 and two negative control phage: HPKF, a clone that binds specifically to a commercially obtained anti-IL-8 mAb, and IL6-B26, a clone that binds specifically to a human IL-6 receptor. After removing unbound phage by washing four times with 200 μl aliquots of TBST (25 mM TrisHCl, pH 7.2, 0.15 M NaCl, 0.1% TWEEN® 20), an HRP-conjugated anti-M13 detection antibody (Pharmacia) diluted 1:5,000 in PBS was added. After incubating (1 hr at room temperature), excess detection antibody was removed by washing and 10 μl for each of the washed bead complexes was transferred to microtiter wells (FALCON® 3912, MICROTEST III, Beckton Dickinson, Oxnard, Calif.) that served as reaction vessels. Each well was developed using the TMB peroxidase substrate and the extent of the peroxidase reaction measured spectrophotometrically, as described in Example 4.

[4] = test system: extracellular domains of the receptors for tumor necrosis factor (TNFR); test: phage binding control, TNFR extracellular domain; details: results not shown
chimeric Ig-EPOR protein [5] = target: T4, chimeric Ig-EPOR protein (human; murine, UniProt P19235 25-250); test: phage ELISA, relative to ERB1
T4 construct: extracellular domain; Secreted from COS-7 cells transfected with pcDNA3-IgG1-EPOR; major species about 59 kDa; also called IgG-EPOR; chimeric receptor; not shown: hinge region, CH2 and CH3 domains of the murine IgG1 heavy chain
T4 sequence (looked up): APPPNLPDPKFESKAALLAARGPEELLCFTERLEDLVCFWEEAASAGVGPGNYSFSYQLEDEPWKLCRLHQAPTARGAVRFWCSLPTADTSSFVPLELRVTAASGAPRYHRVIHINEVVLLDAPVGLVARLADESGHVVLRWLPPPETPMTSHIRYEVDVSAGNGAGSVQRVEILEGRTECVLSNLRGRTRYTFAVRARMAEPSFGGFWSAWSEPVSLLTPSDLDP
Method: (§1) To better characterize the phage isolates having binding specificity for the EPOR, we compared the relative affinities of the binding clones presented in FIG. 4, using a phage ELISA procedure. Phage stocks of the binding clones were titered in triplicate to accurately determine the concentration of pfu/ml for each lysate. Different isolates were then assayed by ELISA using normalized phage concentrations so that all clones were tested using equivalent numbers of phage.

chimeric Ig-EPOR protein [6] = target: T4, chimeric Ig-EPOR protein; test: phage ELISA with normalized phage concentrations
Method: as §1

chimeric Ig-EPOR protein [7] = target: T4, chimeric Ig-EPOR protein; test: peptide inhibition ELISA: Ig-EPOR binding to EPO-coated plates
Source text: (§2) Thus, the consensus 12-mer peptide sequence given by SEQ ID NO:12 likely was necessary but not sufficient to create synthetic peptides having high affinity for the EPOR.

chimeric Ig-EPOR protein [8] = target: T4, chimeric Ig-EPOR protein; test: peptide inhibition ELISA (Ig-EPOR binding to EPO-coated plates)
Source text: as §2

chimeric Ig-EPOR protein [9] = target: T4, chimeric Ig-EPOR protein; test: control in the peptide inhibition ELISA (FIGS. 6 and 7)
Source text: Synthetic peptides having the sequences […]-[…] (SEQ ID NO:81), and […]-[…] (SEQ ID NO:82) were synthesized in the cyclic (disulfide-bonded) form using standard procedures (Peninsula Laboratories, Belmont, Calif.).

T3 sequence (P01868 98-324 partner limits assumed, one chain of several): as the sequence (P01868 98-324 partner limits assumed, one chain of several) above

With CRRGWVGQCKAWFN [7N-4] the “EPOR binding activity” value (chimeric Ig-EPOR protein [1]) was “abolished EPOR binding activity”.

With CC(C)C[C@H](NC(=O)[C@H](Cc1c[nH]c2ccccc12)NC(=O)[C@H](Cc1ccc(O)cc1)NC(=O)[C@H](CC(N)=O)NC(=O)[C@@H]1CSSC[C@H](NC(=O)[C@H](C)NC(=O)[C@H](CCC(=O)O)NC(=O)[C@@H](NC(=O)[C@@H](N)CC(=O)O)C(C)C)C(=O)NCC(=O)NCC(=O)NCC(=O)N[C@@H](Cc2c[nH]c3ccccc23)C(=O)N[C@@H](C(C)C)C(=O)NCC(=O)N[C@@H](Cc2c[nH]cn2)C(=O)N1)C(=O)N[C@@H](CCCNC(=N)N)C(=O)O [ERB1-8] (H-DVEACGGGWVGHCNYWLR-OH; disulfide 5-13; N-terminus and C-terminus assumed) the IC50 (chimeric Ig-EPOR protein [1]) was ~0.045 µM.

Work on CC(C)[C@@H]1NC(=O)[C@H](Cc2c[nH]c3ccccc23)NC(=O)CNC(=O)[C@H](CCCNC(=N)N)NC(=O)[C@H](CCCNC(=N)N)NC(=O)[C@@H](NC(=O)CNC(=O)[C@H](CCC(=O)O)NC(=O)[C@H](CCCNC(=N)N)NC(=O)[C@@H](N)CC(=O)O)CSSC[C@@H](C(=O)N[C@@H](CCCCN)C(=O)N[C@@H](C)C(=O)N[C@@H](Cc2c[nH]c3ccccc23)C(=O)N[C@@H](Cc2ccccc2)C(=O)N[C@@H](CC(N)=O)C(=O)O)NC(=O)[C@H](CCC(N)=O)NC(=O)CNC1=O [ERB1-7] (H-DREGCRRGWVGQCKAWFN-OH; disulfide 5-13; N-terminus and C-terminus assumed) yielded an IC50 (chimeric Ig-EPOR protein [1]) of ~0.045 µM.

In the case of “EPO: recombinant human EPO (R & D Systems)”, the “half maximal response (ED50), TF-1 proliferation” value (TF-1 cells; three days culture) is reported as 0.05 to 0.1 unit/ml.

For “GGAFCEAVGCGPDRNFYGG [IL-6 peptide, reference compound]”, the “stimulation of TF-1 cell proliferation” value (TF-1 cells; any tested concentration up to 20 μM) was “did not stimulate TF-1 cell proliferation”.

In the case of GCRRGWVGQCKAWFN [7N-3], the “EPOR binding activity” value (chimeric Ig-EPOR protein [1]) is reported as “abolished EPOR binding activity”.

For “Ig-EPOR: chimeric protein: ligand binding domain of human EPOR and hinge, CH2 and CH3 domains of murine IgG1”, the binding kinetics [2] was “in good agreement with known affinity values”.

For “DFDVCRRGWVGHCKDWLSDEYASNPSYPVPHSYYLNPP [ERB1]”, the “normalized relative affinity (Rel. Aff.)” value (chimeric Ig-EPOR protein [3]) was 1.0, the “binding to extracellular domain of IL-6R” value (interleukin-6 (IL-6R)) was “did not bind” and the “binding to the Ig-EPOR probe” value (chimeric Ig-EPOR probe) was “bound specifically”. The “binding to extracellular domain of TNFR” value [4] was “did not bind”.

B1: phage clone N10 (peptide)
chain: DFEGSLREWDGDWPEWLRDEYARPSYPNPHKANQKPP
notes: not shown: M13 phage pIII coat protein
For B1, the “relative affinity (Rel. Aff., ERB1 = 1.0)” value (chimeric Ig-EPOR protein [5]) was < 0.1.

B2: phage clone N11 (peptide)
chain: ALDVGRWDGVGHCKGCLKDEYTTLDSKNNPQISQVSPT
notes: as for B1
In the case of B2, the “relative affinity (Rel. Aff., ERB1 = 1.0)” value (chimeric Ig-EPOR protein [5]) is reported as < 0.1.

B3: phage clone N12 (peptide)
chain: DVEVGRRACVGYCQEFLRDEYTATPSYPDKHSNYLNPP
notes: as for B1
With B3 the “relative affinity (Rel. Aff., ERB1 = 1.0)” value (chimeric Ig-EPOR protein [5]) was < 0.1.

B4: phage clone N13 (peptide)
chain: DIAVCRGGCVGLCEEGLRDEYACNVKKPVPHSYKLNTP
notes: as for B1
With B4 the “relative affinity (Rel. Aff., ERB1 = 1.0)” value (chimeric Ig-EPOR protein [5]) was < 0.1.

B5: phage clone B7 (peptide)
chain: DREGCRRGWVGQCKAWFNDEYAKPPKKPFRNSYSLGPA
notes: as for B1
In the case of B5, the “fold affinity relative to the parent ERB1 clone” value (chimeric Ig-EPOR protein [6]) is reported as ~20 fold.

B6: phage clone B8 (peptide)
chain: DVEACGGGWVGHCNYWLRDEYASKPIKQVPPGNHNQPS
notes: as for B1
With B6 the “fold affinity relative to the parent ERB1 clone” value (chimeric Ig-EPOR protein [6]) was ~20 fold.

B7: 17-mer peptide 7N-1 (peptide)
peptide: REGCRRGWVGQCKAWFN
modifications: disulfide 4-12 (inferred)
notes: N-terminal truncation of ERB1-7
B7 gave an IC50 (chimeric Ig-EPOR protein [7]) of 0.091 µM.

B8: 16-mer peptide 7N-2 (peptide)
peptide: EGCRRGWVGQCKAWFN
modifications: disulfide 3-11 (inferred)
notes: as for B7
Work on B8 yielded an IC50 (chimeric Ig-EPOR protein [7]) of ~3.7 µM.

B9: 15-mer peptide 7N-3 (peptide)
peptide: GCRRGWVGQCKAWFN
modifications: not fully specified (bridges); also: synthesized as (cyclic form there)
notes: as for B7
B9: no binding (chimeric Ig-EPOR protein [8]).

B10: 14-mer peptide 7N-4 (peptide)
peptide: CRRGWVGQCKAWFN
modifications: not fully specified (bridges); also: synthesized as (cyclic form there)
notes: as for B7
B10: no binding (chimeric Ig-EPOR protein [8]).

B11: IL-6 peptide (peptide)
peptide: GGAFCEAVGCGPDRNFYGG
notes: also called irrelevant IL-6 peptide
B11: no binding (chimeric Ig-EPOR protein [9]).
